Laboratory results as given in patent publication US20200239579A1 (Genmab, published 2020).
Like-named read-outs stand apart in the source and are kept apart here.

Tests used:
[1] = target: T1, PDLoneECDHisCtag (human, UniProt Q9NZQ7 19-238); test: BLI cross-block, second antibody on PDLoneECDHisCtag held by immobilised 547; plain = non-blocking
T1 construct: Expressed in HEK-293F cells; theoretical molecular weight 29 kDa; also called recombinant human PD-L1 ECD; human PD-L1 (BLI); not shown: C-terminal His-tag; C-tag
T1 sequence (Q9NZQ7 19-238, form in doubt): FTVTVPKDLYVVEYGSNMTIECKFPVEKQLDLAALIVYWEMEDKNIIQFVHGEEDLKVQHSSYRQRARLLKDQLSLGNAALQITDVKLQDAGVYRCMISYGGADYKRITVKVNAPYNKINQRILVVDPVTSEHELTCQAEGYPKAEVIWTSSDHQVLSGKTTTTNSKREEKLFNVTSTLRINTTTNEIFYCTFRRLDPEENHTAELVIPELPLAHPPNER
Description: (§1) Antibody cross-block testing was performed using biolayer interferometry (BLI) on an Octet HTX instrument (ForteBio). Antibodies (20 μg/ml in 10 mM sodium acetate buffer pH 6.0 (ForteBio)) were immobilized on Amine-Reactive 2nd Generation (AR2G) biosensors (ForteBio) according to the instructions of the manufacturer. After a baseline (50 s) in Sample Diluent (ForteBio), biosensors containing immobilized antibodies were loaded for 500 s with PDLoneECDHisCtag (100 nM or 2.7 μg/ml), after which the association response of a second antibody (10 μg/ml) was followed for 500 s. Biosensors were regenerated by using 3 times 5 s alternating exposures to 10 mM glycine pH 2.5 and Sample Diluent. The experiment was repeated with a new set of second antibodies starting from the baseline step. Each biosensor was used 6 times. The experiment was performed at 30° C. using a shaker speed of 1000 rpm. Data was analyzed using Data Analysis Software v9.0.0.12 (ForteBio). The Y-axis was aligned to the association step and Savitzky-Golay filtering was applied. The average buffer response was subtracted from the association response of the second antibody in order to correct for the dissociation of PDLoneECDHisCtag from the immobilized antibody. The corrected association responses were plotted in a matrix format.

[2] = target: T1, PDLoneECDHisCtag; test: BLI (Octet HTX); antibody on anti-human IgG Fc capture sensor, PDLoneECDHisCtag as analyte; 1:1 global fit, 200 s dissociation time
Description: In a first set of experiments, affinities for recombinant-expressed human PD-L1 protein were determined using Bio-layer interferometry (BLI) on an Octet HTX instrument (ForteBio). Anti-Human IgG Fc Capture (AHC) biosensors (ForteBio) were loaded for 900 s with antibodies (1 μg/ml). […] The experiment was carried out while shaking at 1000 rpm at 30° C. Data was analyzed with Data Analysis Software v9.0.0.12 (ForteBio) using the 1:1 model and a global full fit with 1000 s association time and 200 or 1000 s dissociation time. Data traces were corrected by subtraction of a buffer reference, the Y-axis was aligned to the last 10 s of the baseline, and interstep correction as well as Savitzky-Golay filtering was applied. Data traces with a response <0.05 nm were excluded from analysis. As default, the fit using 1000 s dissociation time was used.

[3] = target: T1, PDLoneECDHisCtag; test: BLI cross-block, second antibody on PDLoneECDHisCtag held by immobilised 632; bold = blocking
Description: as §1

[4] = target: T2, human PD-L1 (full length, on cells) (human, UniProt Q9NZQ7 19-290); test: flow cytometry on MDA-MB-231 cells, PE anti-human IgG secondary, MFI (PE)
T2 construct: The entry holds the signal peptide; also called CD274; B7H1
T2 sequence (Q9NZQ7 19-290 limits assumed): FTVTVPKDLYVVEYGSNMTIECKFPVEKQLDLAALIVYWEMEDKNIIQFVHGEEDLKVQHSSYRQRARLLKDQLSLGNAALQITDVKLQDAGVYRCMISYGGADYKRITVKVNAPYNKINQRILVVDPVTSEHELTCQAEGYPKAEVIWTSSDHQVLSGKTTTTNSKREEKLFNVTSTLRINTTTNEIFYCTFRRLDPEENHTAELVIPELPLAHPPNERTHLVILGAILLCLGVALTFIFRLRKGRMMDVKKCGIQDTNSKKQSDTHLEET
Description: (§2) Cells (3-5×10⁴ cells/well) were incubated in polystyrene 96-well round-bottom plates (Greiner bio-one, cat. no. 650101) with serial dilutions of antibodies (range 0.0001 to 10 μg/mL in 5-fold dilution steps) in 50 μL PBS/0.1% BSA/0.02% azide (staining buffer) at 4° C. for 30 min.
(§3) After washing twice in staining buffer, cells were incubated in 50 μL secondary antibody at 4° C. for 30 min. As a secondary antibody, R-Phycoerythrin (PE)-conjugated goat-anti-human IgG F(ab′)₂ (Cat. no. 109-116-098, Jackson ImmunoResearch Laboratories, Inc., West Grove, Pa.) diluted 1:500 in staining buffer, was used for all experiments. Next, cells were washed twice in staining buffer, re-suspended in 20 μL staining buffer and analyzed on an iQue screener (Intellicyt Corporation, USA). Binding curves were analyzed using non-linear regression (sigmoidal dose-response with variable slope) using GraphPad Prism V75.04 software (GraphPad Software, San Diego, Calif., USA).

[5] = target: T1, PDLoneECDHisCtag; test: BLI cross-block, second antibody on PDLoneECDHisCtag held by immobilised 476-N101Q-LC33S; bold = blocking
Description: as §1

[6] = target: T1, PDLoneECDHisCtag; test: BLI cross-block, second antibody on PDLoneECDHisCtag held by immobilised 421-LC91S; plain = non-blocking
Description: as §1

[7] = target: T3, cynomolgus monkey PD-L1 (full length, on CHO cells) (cynomolgus monkey (Macaca fascicularis), UniProt G7PSE7 19-290); test: flow cytometry on CHO cells transfected with cynomolgus PD-L1, PE anti-human IgG secondary, MFI (PE)
T3 construct: whole, on cells; also called PDL1 Mf; cynomolgus PD-L1
T3 sequence (G7PSE7 entry or part of it): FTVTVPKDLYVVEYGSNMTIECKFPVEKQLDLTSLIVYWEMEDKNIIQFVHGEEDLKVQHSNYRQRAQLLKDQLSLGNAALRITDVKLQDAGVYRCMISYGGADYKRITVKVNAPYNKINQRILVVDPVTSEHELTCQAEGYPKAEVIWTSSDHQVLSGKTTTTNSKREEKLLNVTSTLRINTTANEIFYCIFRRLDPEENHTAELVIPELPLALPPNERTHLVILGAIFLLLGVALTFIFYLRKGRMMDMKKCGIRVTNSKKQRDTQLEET
Description: as §2, §3
(§4) Binding to CHO cells expressing cynomolgus PD-L1 was determined by flow cytometry using a method as described above.

[8] = target: T2, human PD-L1 (full length, on cells); test: cell-based or functional assay
[9] = target: T1, PDLoneECDHisCtag; test: BLI cross-block, second antibody on PDLoneECDHisCtag held by immobilised 511-LC33S; plain = non-blocking
Description: as §1

[10] = target: T1, PDLoneECDHisCtag; test: BLI cross-block, second antibody on PDLoneECDHisCtag held by immobilised 476-N101Q-LC33S; plain = non-blocking
Description: as §1

[11] = target: T2, human PD-L1 (full length, on cells); test: flow cytometry on MDA-MB-231 cells, PE anti-human IgG secondary, MFI (PE); remark: listed apart in the source
Description: as §2, §3

[12] = target: T3, cynomolgus monkey PD-L1 (full length, …); test: flow cytometry on CHO cells transfected with cynomolgus PD-L1, PE anti-human IgG secondary, MFI (PE); remark: listed apart in the source
Description: as §2, §3, §4

B1: IgG1-511-LC33S-FEAR (antibody, V domains shown)
VH: QVQLVQSGSELKKPGASVMVSCKASGYTFTSYVMNWVRQAPGQGLEWMGWINSYTGNPTSAQGFTGRFVFSFDTSVNTAYLQISSLKAEDTAVYYCARGYCTSTSCYLDYWGQGTLVTVSS
VL: SYELTQPPSVSVSPGHTARITCSGDALPKKYASWFQQKSGQAPVLVIYEDSKRPSGIPERFSGSTSGTMATLTISGAQVEDETDYYCYSADTSGTHRVFGGGTKLTVLG
- association response of the second antibody [1]: 0.7 nm
- Kd [2]: 3.8 nM
- koff [2]: 0.0045 s⁻¹
- kon [2]: 1.2e+06 M⁻¹ s⁻¹
- association response of the second antibody [3]: 0 nm
- EC50 (read off the curve) [4]: ~0.08 µg/mL
- association response of the second antibody [5]: 0 nm
- association response of the second antibody [6]: 0.3 nm
- EC50 (read off the curve) [7]: ~0.08 µg/mL

B2: IgG1-547-FEAR (antibody, V domains shown)
VH: EVQLLEPGGGLVQPGGSLRLSCEASGSTFSTYAMSWVRQAPGKGLEWVSGFSGSGGFTFYADSVRGRFTISRDSSKNTLFLQMSSLRAEDTAVYYCAIPARGYNYGSFQHWGQGTLVTVSS
VL: SYVLTQPPSVSVAPGQTARITCGGNNIGSKSVHWYQQKPGQAPVLVVYDDNDRPSGLPERFSGSNSGNTATLTISRVEAGDEADYYCQVWDSSSDHVVFGGGTKLTVLG
- EC50 (read off the curve) [8]: ~0.02 µg/mL
- association response of the second antibody [9]: 0.6 nm
- association response of the second antibody [10]: 0.7 nm

B3: IgG1-338-FEAR (antibody, V domains shown)
VH: EVQVVESGGGLVQPGGSLRLSCAASGFTFSRFWMSWVRQAPGKGLEWVANIKQDGGEKYYVDSVKGRFTISRDNAKNSLYLQMNSLRGEDTAVYYCARDDNWNGHFDYWGQGTLVTVSS
VL: DIQMTQSPSTLSASVGDRVTITCRASQSISSWLAWYQQKPGKAPNLLIYKASSLESGVPSRFSGSGSGTEFTLTISSLQPDDFATYYCQQYYGSYITFGQGTRLEIKR
- EC50 (read off the curve) [11]: ~0.02 µg/mL
- EC50 (read off the curve) [12]: ~0.07 µg/mL
